Where a chain is given by its changes, count along the chain named. Read-outs that look alike come from different tables or passages of the source. Each block holds one binder with its values, some of them ahead of it.
Assays:
[1] = biological target: T1, integrin αvβ5 expressed on CHO cells (UniProt P06756 31-1048; P18084 24-799, limits assumed); experiment: flow cytometry titration on AvB5 CHO cells
T1 construct: whole, on cells
Procedure: (§1) Adherent cells were brought into suspension using PBS supplemented with 10 mM ethylenediaminetetraacetic acid (EDTA). The cells were washed with PBS, resuspended in PBS supplemented with 1% BSA, and incubated for 15 minutes at 4° C. The cells were labelled with 50 μl of Fab-phage culture supernatant, or 500 nM Fab, or IgG for 30 minutes at 4° C., then washed with PBS and resuspended in PBS supplemented with 1% BSA. Next, the cells were labelled with anti-Fab (for Fab-phage), or anti-Flag (for Fabs) or anti-Fc (for IgGs) conjugated Alexa-488 secondary Ab according to manufacturer's instructions. Data were collected using a CytoFLEX-S flow-cytometer using a 488-nm laser with 530/25 nm filter settings. The cells were analyzed in PBS, and all acquired live events were greater than 10,000 cells per sample. Quantitation analysis was carried out using FlowJo v10.2 Software. For Ab cellular titration analysis, the Abs were added to antigen positive cells in duplicate samples from a range of 500 pM to 1 μM. The mean fluorescence signal values were subtracted from the control antigen negative cells signals, and EC50 determined using Graph-pad Prism, where x is the Fab concentration: […]

[2] = biological target: T2, integrin αvβ8 expressed on CHO cells (UniProt P06756 31-1048; P26012 43-769, limits assumed); experiment: flow cytometry titration on AvB8 CHO cells
T2 construct: whole, on cells
Procedure: as §1

[3] = biological target: T3, integrin αvβ3 expressed on CHO cells (UniProt P06756 31-1048; P05106 27-788, limits assumed); experiment: cell-based or functional assay
[4] = biological target: T2, integrin αvβ8 expressed on CHO cells; experiment: cell-based or functional assay
[5] = biological target: T1, integrin αvβ5 expressed on CHO cells; experiment: cell-based or functional assay
[6] = biological target: T4, integrin αvβ1 expressed on CHO cells (UniProt P06756 31-1048; P05556 21-798, limits assumed); experiment: cell-based or functional assay
[7] = biological target: T5, integrin αvβ6 expressed on CHO cells (UniProt P06756 31-1048; P18564 22-788, limits assumed); experiment: cell-based or functional assay
[8] = biological target: T3, integrin αvβ3 expressed on CHO cells; experiment: flow cytometry titration on AvB3 CHO cells
Procedure: as §1

[9] = biological target: T4, integrin αvβ1 expressed on CHO cells; experiment: flow cytometry titration on AvB1 CHO cells
Procedure: as §1

[10] = biological target: T5, integrin αvβ6 expressed on CHO cells; experiment: flow cytometry titration on AvB6 CHO cells
Procedure: as §1

[11] = biological target: T3, integrin αvβ3 expressed on CHO cells; experiment: flow cytometry titration on integrin-expressing CHO cells
Procedure: as §1

[12] = biological target: T2, integrin αvβ8 expressed on CHO cells; experiment: as above
Procedure: as §1

[13] = biological target: T1, integrin αvβ5 expressed on CHO cells; experiment: as above
Procedure: as §1

[14] = biological target: T4, integrin αvβ1 expressed on CHO cells; experiment: as above
Procedure: as §1

[15] = biological target: T5, integrin αvβ6 expressed on CHO cells; experiment: as above
Procedure: as §1

[16] = biological target: T3, integrin αvβ3 expressed on CHO cells; experiment: cell-based or functional assay; remark: listed apart in the source
[17] = biological target: T4, integrin αvβ1 expressed on CHO cells; experiment: cell-based or functional assay; remark: listed apart in the source
[18] = biological target: T6, recombinant human integrin-αvβ1 (human, UniProt P06756 31-992; P05556 21-728, limits assumed); experiment: IgG titration on recombinant human integrin αvβ1, one site-total fit; assay format not stated; set-up: Bmax: unit not given here
T6 construct: also called Recombinant Human Integrins

[19] = biological target: T7, recombinant mouse integrin-αvβ1 (mouse, UniProt P43406 31-988; P09055 21-728, limits assumed); experiment: IgG titration on recombinant mouse integrin αvβ1, one site-total fit; assay format not stated
T7 construct: also called Recombinant Mouse Integrins

[20] = biological target: T4, integrin αvβ1 expressed on CHO cells; experiment: cell-based or functional assay; remark: listed apart in the source
[21] = biological target: T2, integrin αvβ8 expressed on CHO cells; experiment: cell-based or functional assay; remark: listed apart in the source
[22] = biological target: T1, integrin αvβ5 expressed on CHO cells; experiment: cell-based or functional assay; remark: listed apart in the source

T6 sequence (P06756 31-992 limits assumed, chain 1 of 2): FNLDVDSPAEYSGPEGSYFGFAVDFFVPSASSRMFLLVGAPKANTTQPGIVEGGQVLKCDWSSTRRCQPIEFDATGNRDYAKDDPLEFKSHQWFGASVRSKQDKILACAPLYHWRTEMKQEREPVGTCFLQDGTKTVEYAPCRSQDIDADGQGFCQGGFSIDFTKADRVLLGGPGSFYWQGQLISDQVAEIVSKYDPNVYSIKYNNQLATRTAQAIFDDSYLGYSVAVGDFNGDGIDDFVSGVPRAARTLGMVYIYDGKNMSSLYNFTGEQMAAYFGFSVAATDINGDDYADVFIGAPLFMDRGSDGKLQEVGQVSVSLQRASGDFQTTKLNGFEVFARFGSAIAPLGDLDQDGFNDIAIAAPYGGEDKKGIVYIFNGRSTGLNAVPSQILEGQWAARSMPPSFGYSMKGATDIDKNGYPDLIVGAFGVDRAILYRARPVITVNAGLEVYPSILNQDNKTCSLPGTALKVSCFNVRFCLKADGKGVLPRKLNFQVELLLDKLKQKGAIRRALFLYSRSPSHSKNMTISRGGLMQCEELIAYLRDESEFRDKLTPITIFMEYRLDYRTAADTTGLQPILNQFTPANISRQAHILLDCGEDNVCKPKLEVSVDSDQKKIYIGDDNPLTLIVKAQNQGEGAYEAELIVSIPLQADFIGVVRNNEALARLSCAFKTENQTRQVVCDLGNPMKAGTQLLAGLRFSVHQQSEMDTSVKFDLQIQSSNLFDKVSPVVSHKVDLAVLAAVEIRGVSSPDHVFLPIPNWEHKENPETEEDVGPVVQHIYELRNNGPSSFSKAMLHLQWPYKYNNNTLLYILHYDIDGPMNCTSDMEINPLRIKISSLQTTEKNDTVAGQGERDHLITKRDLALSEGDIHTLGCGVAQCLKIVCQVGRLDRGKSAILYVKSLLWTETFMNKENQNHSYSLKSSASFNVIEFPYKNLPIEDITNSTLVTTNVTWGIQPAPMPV
T6 sequence (P05556 21-728 limits assumed, chain 2 of 2): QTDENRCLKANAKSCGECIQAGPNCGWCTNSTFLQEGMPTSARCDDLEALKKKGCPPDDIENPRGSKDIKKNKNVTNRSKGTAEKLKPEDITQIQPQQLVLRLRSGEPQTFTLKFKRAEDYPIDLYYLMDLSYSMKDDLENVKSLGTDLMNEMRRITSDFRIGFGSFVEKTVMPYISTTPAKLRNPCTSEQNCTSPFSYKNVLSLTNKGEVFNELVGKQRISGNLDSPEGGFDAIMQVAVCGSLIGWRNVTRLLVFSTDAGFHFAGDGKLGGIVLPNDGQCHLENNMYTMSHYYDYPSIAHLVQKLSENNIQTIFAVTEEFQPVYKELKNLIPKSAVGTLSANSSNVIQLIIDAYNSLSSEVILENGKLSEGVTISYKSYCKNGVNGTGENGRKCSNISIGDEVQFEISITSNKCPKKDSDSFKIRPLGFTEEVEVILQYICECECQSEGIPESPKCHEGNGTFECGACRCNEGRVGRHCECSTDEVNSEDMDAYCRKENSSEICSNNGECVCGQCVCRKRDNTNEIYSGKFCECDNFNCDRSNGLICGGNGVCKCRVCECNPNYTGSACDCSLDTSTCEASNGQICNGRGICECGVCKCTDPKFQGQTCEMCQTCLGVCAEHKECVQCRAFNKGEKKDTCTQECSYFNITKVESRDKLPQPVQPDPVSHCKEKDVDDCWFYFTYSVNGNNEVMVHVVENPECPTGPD
T7 sequence (P43406 31-988 limits assumed, chain 1 of 2): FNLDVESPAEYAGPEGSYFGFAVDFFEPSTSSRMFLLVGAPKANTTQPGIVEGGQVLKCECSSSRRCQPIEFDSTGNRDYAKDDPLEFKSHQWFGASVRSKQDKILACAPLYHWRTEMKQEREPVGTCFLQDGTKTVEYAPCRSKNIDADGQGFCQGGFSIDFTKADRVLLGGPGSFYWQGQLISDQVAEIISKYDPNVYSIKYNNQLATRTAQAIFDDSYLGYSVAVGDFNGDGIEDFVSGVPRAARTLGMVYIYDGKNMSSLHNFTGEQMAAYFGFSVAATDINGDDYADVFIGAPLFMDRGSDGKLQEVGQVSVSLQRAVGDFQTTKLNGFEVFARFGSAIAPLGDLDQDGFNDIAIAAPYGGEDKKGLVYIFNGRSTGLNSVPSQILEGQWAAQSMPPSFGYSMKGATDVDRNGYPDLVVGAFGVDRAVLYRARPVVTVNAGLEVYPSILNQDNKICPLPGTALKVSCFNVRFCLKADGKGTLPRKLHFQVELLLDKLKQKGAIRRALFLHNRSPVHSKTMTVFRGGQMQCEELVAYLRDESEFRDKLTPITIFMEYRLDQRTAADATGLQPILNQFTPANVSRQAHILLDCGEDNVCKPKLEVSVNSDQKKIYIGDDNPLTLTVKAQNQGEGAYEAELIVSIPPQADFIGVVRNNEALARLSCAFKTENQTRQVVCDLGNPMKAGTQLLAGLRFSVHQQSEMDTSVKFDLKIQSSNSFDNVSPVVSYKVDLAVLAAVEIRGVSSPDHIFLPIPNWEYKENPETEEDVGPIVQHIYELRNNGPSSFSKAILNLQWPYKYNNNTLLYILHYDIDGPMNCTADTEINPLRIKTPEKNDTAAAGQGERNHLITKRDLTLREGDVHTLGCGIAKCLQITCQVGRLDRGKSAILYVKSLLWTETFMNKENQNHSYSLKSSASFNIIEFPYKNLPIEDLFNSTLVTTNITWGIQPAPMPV
T7 sequence (P09055 21-728 limits assumed, chain 2 of 2): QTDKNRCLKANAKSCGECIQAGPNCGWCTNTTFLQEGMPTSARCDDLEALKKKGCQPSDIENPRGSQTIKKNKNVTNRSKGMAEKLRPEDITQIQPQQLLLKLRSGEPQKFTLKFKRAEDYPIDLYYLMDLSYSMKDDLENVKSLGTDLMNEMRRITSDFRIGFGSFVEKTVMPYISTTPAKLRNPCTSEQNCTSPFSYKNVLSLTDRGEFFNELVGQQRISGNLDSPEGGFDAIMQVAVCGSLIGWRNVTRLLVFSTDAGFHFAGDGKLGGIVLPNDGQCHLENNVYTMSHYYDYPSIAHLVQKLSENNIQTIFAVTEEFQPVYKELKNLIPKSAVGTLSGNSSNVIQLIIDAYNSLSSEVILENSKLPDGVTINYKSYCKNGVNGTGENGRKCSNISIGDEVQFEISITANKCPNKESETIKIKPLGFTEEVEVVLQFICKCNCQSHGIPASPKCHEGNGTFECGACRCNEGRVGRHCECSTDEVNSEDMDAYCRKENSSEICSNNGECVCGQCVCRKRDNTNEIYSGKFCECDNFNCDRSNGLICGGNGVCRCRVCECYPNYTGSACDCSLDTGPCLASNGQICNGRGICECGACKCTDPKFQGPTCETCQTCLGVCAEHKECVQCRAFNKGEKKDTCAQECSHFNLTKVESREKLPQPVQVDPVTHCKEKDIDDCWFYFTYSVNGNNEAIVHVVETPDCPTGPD
T2 sequence (P06756 31-1048 limits assumed, chain 1 of 2): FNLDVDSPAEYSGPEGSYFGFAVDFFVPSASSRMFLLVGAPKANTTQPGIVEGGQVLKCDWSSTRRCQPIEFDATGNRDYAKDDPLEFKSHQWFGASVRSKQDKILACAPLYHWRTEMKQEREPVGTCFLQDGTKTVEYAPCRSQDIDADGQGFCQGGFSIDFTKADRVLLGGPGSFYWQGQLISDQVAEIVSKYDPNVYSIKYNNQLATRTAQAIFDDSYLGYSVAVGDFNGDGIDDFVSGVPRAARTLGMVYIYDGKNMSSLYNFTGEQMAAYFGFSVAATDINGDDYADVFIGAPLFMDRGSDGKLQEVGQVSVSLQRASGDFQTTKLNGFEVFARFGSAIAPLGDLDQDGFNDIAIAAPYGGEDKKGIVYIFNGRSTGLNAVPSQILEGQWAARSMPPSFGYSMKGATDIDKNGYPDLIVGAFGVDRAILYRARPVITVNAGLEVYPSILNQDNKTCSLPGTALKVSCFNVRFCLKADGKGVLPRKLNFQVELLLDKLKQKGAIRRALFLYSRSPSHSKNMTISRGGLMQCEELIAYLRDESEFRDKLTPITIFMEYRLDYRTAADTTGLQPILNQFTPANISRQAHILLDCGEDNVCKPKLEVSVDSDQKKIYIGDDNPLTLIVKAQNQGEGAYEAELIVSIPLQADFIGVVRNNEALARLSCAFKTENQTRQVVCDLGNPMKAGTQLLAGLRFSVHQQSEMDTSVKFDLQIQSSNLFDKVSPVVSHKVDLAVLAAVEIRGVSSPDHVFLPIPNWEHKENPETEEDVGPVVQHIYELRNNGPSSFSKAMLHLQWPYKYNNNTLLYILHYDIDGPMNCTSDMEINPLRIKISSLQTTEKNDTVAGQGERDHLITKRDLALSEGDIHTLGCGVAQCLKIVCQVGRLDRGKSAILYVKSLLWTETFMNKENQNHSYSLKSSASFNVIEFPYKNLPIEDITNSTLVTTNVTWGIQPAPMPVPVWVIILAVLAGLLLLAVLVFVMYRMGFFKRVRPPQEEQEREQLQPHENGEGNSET
T2 sequence (P26012 43-769 limits assumed, chain 2 of 2): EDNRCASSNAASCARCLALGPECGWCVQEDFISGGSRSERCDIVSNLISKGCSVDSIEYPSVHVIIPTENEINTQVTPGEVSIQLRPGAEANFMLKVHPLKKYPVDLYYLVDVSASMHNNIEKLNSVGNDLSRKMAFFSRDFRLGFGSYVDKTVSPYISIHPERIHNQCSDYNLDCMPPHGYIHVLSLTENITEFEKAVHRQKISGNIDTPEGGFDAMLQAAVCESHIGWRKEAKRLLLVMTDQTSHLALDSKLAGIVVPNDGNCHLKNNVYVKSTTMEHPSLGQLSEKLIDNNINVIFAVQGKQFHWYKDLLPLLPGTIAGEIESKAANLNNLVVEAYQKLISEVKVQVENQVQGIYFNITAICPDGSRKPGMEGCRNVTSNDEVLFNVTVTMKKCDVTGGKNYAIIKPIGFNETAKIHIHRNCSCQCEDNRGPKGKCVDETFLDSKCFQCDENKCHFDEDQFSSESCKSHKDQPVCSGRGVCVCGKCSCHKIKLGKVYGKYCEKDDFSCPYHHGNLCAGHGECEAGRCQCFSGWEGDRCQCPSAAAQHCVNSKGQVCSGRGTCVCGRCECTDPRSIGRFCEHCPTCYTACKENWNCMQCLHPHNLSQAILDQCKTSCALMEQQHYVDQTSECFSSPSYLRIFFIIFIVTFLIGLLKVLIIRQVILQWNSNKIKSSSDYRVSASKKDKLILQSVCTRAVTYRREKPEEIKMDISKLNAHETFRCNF

EC50 [1]: 1.2 nM
EC50 [2]: 6.4 nM
IC50, inhibition of CHO cell adhesion to LAP-TGFβ [3]: 7.5 nM
IC50, inhibition of CHO cell adhesion to LAP-TGFβ [4]: 2.5 nM
IC50, inhibition of CHO cell adhesion to LAP-TGFβ [5]: 4.1 nM
IC50, inhibition of CHO cell adhesion to LAP-TGFβ [6]: 3.2 nM
IC50, inhibition of CHO cell adhesion to LAP-TGFβ [7]: 6.1 nM
EC50 [8]: 15.9 nM
EC50 [9]: 2.4 nM
EC50 [10]: 2.5 nM
B1: Bi-IgG 11867/10392 (bispecific antibody)
heavy chain 10392, knob: EVQLVESGGGLVQPGGSLRLSCAASGFNIYYSSIHWVRQAPGKGLEWVASISSSSGSTSYADSVKGRFTISADTSKNTAYLQMNSLRAEDTAVYYCARSYYGGGYPYALDYWGQGTLVTVSSASTKGPSVFPLAPSSKSTSGGTAALGCLVKDYFPEPVTVSWNSGALTSGVHTFPAVLQSSGLYSLSSVVTVPSSSLGTQTYICNVNHKPSNTKVDKKVEPKSCDKTHTCPPCPAPELLGGPSVFLFPPKPKDTLMISRTPEVTCVVVDVSHEDPEVKFNWYVDGVEVHNAKTKPREEQYNSTYRVVSVLTVLHQDWLNGKEYKCKVSNKALPAPIEKTISKAKGQPREPMVFDLPPSREEMTKNQVSLWCMVKGFYPSDIAVEWESNGQPENNYKTTPPVLDSDGSFFLYSKLTVDKSRWQQGNVFSCSVMHEALHNHYTQKSLSLSPGK
heavy chain 11867, hole: EVQLVESGGGLVQPGGSLRLSCAASGFDFDSYAIHWVRQAPGKGLEWVAYFYPGHDYSTYADSVKGRFTISADTSKNTAYLQMNSLRAEDTAVYYCARPSPYFSWHQAMDYWGQGTLVTVSSASTKGPSVFPLAPSSKSTSGGTAALGCLVKDYFPEPVTVSWNSGALTSGVHTFPAVLQSSGLYSLSSVVTVPSSSLGTQTYICNVNHKPSNTKVDKKVEPKSCDKTHTCPPCPAPELLGGPSVFLFPPKPKDTLMISRTPEVTCVVVDVSHEDPEVKFNWYVDGVEVHNAKTKPREEQYNSTYRVVSVLTVLHQDWLNGKEYKCKVSNKALPAPIEKTISKAKGQPREPQVYTLPPIRELMTSNQVSLSCAVKGFYPSDIAVEWESNGQPENNYKTTPPVLDSDGSFFLVSKLTVDKSRWQQGNVFSCSVMHEALHNHYTQKSLSLSPGK
light chain 11867: DIQMTQSPSSLSASVGDRVTITCRASQSVSSAVAWYQQKPGKAPKLLIYSASSLYSGVPSRFSGSRSGTDFTLTISSLQPEDFATYYCQQATGSEVTFGQGTKVEIKRTVAAPSVFIFPPSDEQLKSGTASVVCLLNNFYPREAKVQWKVDNALQSGNSQESVTEQDSKDSTYSLSSTLTLSKADYEKHKVYACEVTHQGLSSPVTKSFNRGEC

EC50 [11]: 14.8 nM
EC50 [12]: 11.4 nM
EC50 [13]: 3.4 nM
EC50 [14]: 2.72 nM
EC50 [15]: 3.26 nM
EC50 [1]: 1.3 nM
IC50, inhibition of CHO cell adhesion to LAP-TGFβ [16]: 45 nM
IC50, inhibition of CHO cell adhesion to LAP-TGFβ [17]: < 1 nM
Bmax [18]: 0.412
Kd [18]: 0.421 nM
Bmax [19]: 0.412
Kd [19]: 0.421 nM
EC50 [2]: 11.6 nM
IC50, inhibition of CHO cell adhesion to LAP-TGFβ [3]: 1.2 nM
IC50, inhibition of CHO cell adhesion to LAP-TGFβ [4]: 1.3 nM
IC50, inhibition of CHO cell adhesion to LAP-TGFβ [5]: 0.7 nM
IC50, inhibition of CHO cell adhesion to LAP-TGFβ [6]: 5 nM
IC50, inhibition of CHO cell adhesion to LAP-TGFβ [7]: 1.4 nM
EC50 [8]: 9.9 nM
adhesion of integrin-αvβ1 CHO cells to LAP-TGFβ, normalised confluence, number over the bar, untreated = 100 [20]: 61.2%
EC50 [9]: 3 nM
EC50 [10]: 3.7 nM
B2: IgG clone 10392, hG1/hk (pSCSTa-hG1 (10392) heavy chain, pSCSTa-hK (10392) light chain) (antibody, V domains shown)
VH: EVQLVESGGGLVQPGGSLRLSCAASGFNIYYSSIHWVRQAPGKGLEWVASISSSSGSTSTYADSVKGRFTISADTSKNTAYLQMNSLRAEDTAVYYCARSYYGGGYPYALDYWGQGTLVTVSS
VL: DIQMTQSPSSLSASVGDRVTITCRASQSVSSAVAWYQQKPGKAPKLLIYSASSLYSGVPSRFSGSRSGTDFTLTISSLQPEDFATYYCQQYFGGLITFGQGTKVEIKR
notes: Full-length human IgG1/kappa made in Expi293 cells

Bmax [18]: 0.782
Kd [18]: 0.358 nM
Bmax [19]: 0.782
Kd [19]: 0.358 nM
B3: 10404 hG4/hk (antibody, V domains shown)
VH: EVQLVESGGGLVQPGGSLRLSCAASGFNLYSSSIHWVRQAPGKGLEWVAYIYPSYGYTSTYADSVKGRFTISADTSKNTAYLQMNSLRAEDTAVYYCARPAPYYSWYPAMDYWGQGTLVTVSS
VL: B2 VL with Y91A, F92S, G94S, L95P, I96F
notes: the IgG4 constant region used is not specified; not shown: human IgG4 constant region ('hG4')

Bmax [18]: 0.555
Kd [18]: 0.411 nM
Bmax [19]: 0.555
Kd [19]: 0.411 nM
B4: 10392 hG1 LALA PG/hk (antibody, human IgG1, V domains shown)
VH: B2 VH
VL: B2 VL
notes: not shown: human IgG1 constant region with 'LALA PG' changes

Bmax [18]: 0.85
Kd [18]: 0.842 nM
Bmax [19]: 0.85
Kd [19]: 0.842 nM
B5: 10392 hG4/hk (antibody, human IgG4, V domains shown)
VH: B2 VH
VL: B2 VL
notes: not shown: human IgG4 constant region ('hG4')

Bmax [18]: 1.09
Kd [18]: 0.244 nM
Bmax [19]: 1.09
Kd [19]: 0.244 nM
B6: 10404 hG1 LALA PG/hk (antibody, V domains shown)
VH: B3 VH
VL: B2 VL with Y91A, F92S, G94S, L95P, I96F
notes: as for B4

EC50 [11]: 13.1 nM
EC50 [12]: 14.3 nM
EC50 [13]: 2.45 nM
EC50 [14]: 2.43 nM
EC50 [15]: 2.96 nM
IC50, inhibition of CHO cell adhesion to LAP-TGFβ [16]: 23.8 nM
IC50, inhibition of CHO cell adhesion to LAP-TGFβ [21]: < 1 nM
IC50, inhibition of CHO cell adhesion to LAP-TGFβ [22]: 3.64 nM
IC50, inhibition of CHO cell adhesion to LAP-TGFβ [17]: 13.2 nM
Bmax [18]: 1.09
Kd [18]: 0.271 nM
Bmax [19]: 1.09
adhesion of integrin-αvβ1 CHO cells to LAP-TGFβ, normalised confluence, number over the bar, untreated = 100 [20]: 46.2%
B7: IgG clone 10404, hG1/hk (pSCSTa-hG1 (10404) heavy chain, pSCSTa-hK (10404) light chain) (antibody, V domains shown)
VH: B3 VH
VL: B2 VL with Y91A, F92S, G94S, L95P, I96F
notes: as for B2

Reference: patent US20240158510A1 (GOVERNING COUNCIL OF THE UNIVERSITY OF TORONTO, published 2024)
